Publication PMC9165289, “Theranostic PSMA ligands with optimized backbones for intraoperative multimodal imaging and photodynamic therapy of prostate cancer” (European Journal of Nuclear Medicine and Molecular Imaging, 2022)
Several values for one entry are separate records, joined by “and”; a condition that tells them apart may be missing. Equal values may be shown once. Read-outs that look alike come from different tables or passages of the source.

Experiments:
[1] = ex vivo biodistribution of 111In-labeled ligands; set-up: species or system BALB/c nude mice; conditions: male, BALB/c nude, mouse, iv, 0.3 nmol, total radioactivity, 2 h p.i.; for tissue uptake at 2 h: 10 MBq/mouse, i.v.
Protocol: (§1) All animal experiments were approved by the institutional Animal Welfare Committee of the Radboud University Medical Center and were conducted in accordance to the guidelines of the Revised Dutch Act on Animal Experimentation. Animal experiments were performed in 8–10 weeks old male BALB/c nude mice (Janvier). The mice were housed in individually ventilated cages (Blue line IVC, 3–5 mice per cage), under standard non-sterile conditions with cage enrichment present. There was free access to chlorophyll-free animal chow (Sniff Voer) and water. Mice were subcutaneously inoculated with 3.0 × 10^6 LS174T-PSMA cells in the right flank and 1.5 × 10^6 LS174T WT cells in the left flank (diluted in 200-µl RPMI 1640 medium). When xenografts were approximately 0.5 cm^3 (10–14 days after injection), mice were block-randomized into groups based on tumor size. The researchers were not blinded for the experimental groups.
(§2) Mice were intravenously injected with 0.3 nmol PSMA ligand, labeled with 10 MBq ^111In (molar activity 33.3 MBq/nmol) in PBS + 0.5% (w/v) BSA. For the ex vivo biodistribution, five groups (one group for each ligand) of four mice were included. Two hours p.i., all mice were euthanized by CO2/O2-asphyxiation. For two mice of each group (2 mice/ligand), background-subtracted fluorescence images were acquired with the IVIS imaging system (Xenogen VivoVision IVIS Lumina II, PerkinElmer), with a 640-nm excitation filter and a Cy5.5 emission filter and an acquisition time of 10 s. Next, µSPECT/CT imaging was performed in the same two mice per group, with a 1.0-mm diameter pinhole mouse collimator tube (U-SPECT II, MILabs). Mice were scanned for 30 min followed by a CT scan for anatomical reference (spatial resolution 160 μm, 615 μA, 65 kV). MILabs reconstruction software was used to reconstruct the µSPECT/CT scans, via an ordered-subset expectation maximization algorithm, energy windows 154–188 keV and 220–270 keV, 3 iterations, 16 subsets, and voxel size of 0.75 mm. SPECT/CT maximum intensity projections (MIPs) were created using the Inveon Research Workplace software (Siemens Preclinical Solutions, version 4.1). NIR fluorescence images were analyzed using Living Image software (PerkinElmer, version 4.2). After imaging, relevant tissues were dissected, weighed, and measured for radioactivity in a gamma-counter (2480 WIZARD^2 Automatic Gamma Counter, PerkinElmer). In addition, a blocking experiment with PSMA-N064 and PSMA-617 was performed. Full experimental procedures and results can be found in the supplementary data (Page 5, Supplementary Fig. 3).

[2] = tested on: LS174T-PSMA and LS174T wildtype xenografts; assay: ex vivo biodistribution of 111In-labeled ligands; set-up: species or system BALB/c nude mice; conditions: 0.3 nmol, 2 h p.i.
Protocol: as §1, §2

PSMA = target: T1, PSMA (Homo sapiens, UniProt Q04609); assay: competitive binding assay using LS174T-PSMA cells
T1 construct: expressed in transfected cells; host or cells: LS174T colon carcinoma cells (LS174T-PSMA)
Source text: Fig. 3 In vitro characterization of [^111In]In-DOTA(GA)-IRDye700DX-PSMA ligands varying in their backbone composition. a Labeling efficiency of [^111In]In-DOTA-PSMA-N01, -N02, -N03, [^111In]In-DOTAGA-PSMA-N064 and -N064inc at a specific activity of either 10 MBq/µg or 30 MBq/µg (n = 2). IC50 values of ligands as determined in competitive binding assays using LS174T-PSMA cells. b Binding and internalization of [^111In]In-DOTA-PSMA-N01, -N02, -N03, [^111In]In-DOTAGA-PSMA-N064 and -N064inc in LS174T PSMA-positive cells. Membrane binding and internalization are corrected for non-specific binding and accumulation, as determined by co-incubation with an excess of 2-PMPA (50 µg). [^111In]In-DOTA-PSMA-617 was added as a positive control. c PSMA-targeted PDT efficacy of ligands in vitro. Cell viability of LS174T-PSMA (PSMA +) and LS174T wildtype (PSMA-) cells following incubation with 30 nM of PSMA-N01, -N02, -N03, -N064, and -N064inc, after either a 100 J/cm^2 (450 mW/cm^2) radiant exposure or no light exposure (dark).

LS174T-PSMA cells = assay: in vitro binding and internalization assay; assay type: cell-based, human; conditions: 37 °C, 2 h
Protocol: The binding and internalization characteristics of the ligands were determined using LS174T-PSMA cells. Cells were cultured to confluency in 6-well plates followed by incubation with 50,000 counts per minute of ^111In-labeled ligand (0.1–0.25 pmol/well) in 1-ml RPMI + 0.5% BSA (37 °C, 2 h). Non-specific binding was determined by coincubation with 2(phosphonomethyl)-pentane-1,5-dioic acid (2-PMPA, 21.57 µM). PSMA-specific binding was defined as total binding minus the non-specific binding. To retrieve the membrane-bound fraction, cells were washed twice with PBS and incubated for 10 min at 0 °C with acid buffer (154-mM NaCl, 0.1 M acetic acid, pH 2.6). After incubation, the membrane-bound fraction was collected. Then, cells were washed and lysed with 0.1 M NaOH, and the cell lysate (intracellular activity) was collected. Intracellular and membrane-bound activity fractions were measured in a gamma-counter (2480 WIZARD^2 Automatic Gamma Counter, PerkinElmer).

[3] = LS174T wildtype tumor, n=4, read-out: Biodistribution Tumor- LS174T
[4] = LS174T-PSMA tumor, n=4, read-out: Biodistribution Tumor+ LS174T-PSMA
[5] = adrenals, n=4, read-out: Biodistribution Adrenals
[6] = blood, n=4, read-out: Biodistribution Blood
[7] = bone marrow, n=4, read-out: Biodistribution Bone marrow
[8] = bone, n=4, read-out: Biodistribution Bone
[9] = duodenum, n=4, read-out: Biodistribution Duodenum
[10] = heart, n=4, read-out: Biodistribution Heart
[11] = kidney, n=4, read-out: Biodistribution Kidney
[12] = liver, n=4, read-out: Biodistribution Liver
[13] = lung, n=4, read-out: Biodistribution Lung
[14] = muscle, n=4, read-out: Biodistribution Muscle
[15] = pancreas, n=4, read-out: Biodistribution Pancreas
[16] = prostate, n=4, read-out: Biodistribution Prostate
[17] = salivary glands, n=4, read-out: Biodistribution Salivary glands
[18] = spleen, n=4, read-out: Biodistribution Spleen
[19] = stomach, n=4, read-out: Biodistribution Stomach
[20] = tumor (LS174T-PSMA xenograft) / blood, read-out: Tumor/Blood ratio
[21] = tumor (LS174T-PSMA xenograft) / kidney, read-out: Tumor/Kidney ratio
[22] = tumor (LS174T-PSMA xenograft) / liver, read-out: Tumor/Liver ratio
[23] = tumor (LS174T-PSMA xenograft) / spleen, read-out: Tumor/Spleen ratio

T1 sequence (Q04609 whole entry): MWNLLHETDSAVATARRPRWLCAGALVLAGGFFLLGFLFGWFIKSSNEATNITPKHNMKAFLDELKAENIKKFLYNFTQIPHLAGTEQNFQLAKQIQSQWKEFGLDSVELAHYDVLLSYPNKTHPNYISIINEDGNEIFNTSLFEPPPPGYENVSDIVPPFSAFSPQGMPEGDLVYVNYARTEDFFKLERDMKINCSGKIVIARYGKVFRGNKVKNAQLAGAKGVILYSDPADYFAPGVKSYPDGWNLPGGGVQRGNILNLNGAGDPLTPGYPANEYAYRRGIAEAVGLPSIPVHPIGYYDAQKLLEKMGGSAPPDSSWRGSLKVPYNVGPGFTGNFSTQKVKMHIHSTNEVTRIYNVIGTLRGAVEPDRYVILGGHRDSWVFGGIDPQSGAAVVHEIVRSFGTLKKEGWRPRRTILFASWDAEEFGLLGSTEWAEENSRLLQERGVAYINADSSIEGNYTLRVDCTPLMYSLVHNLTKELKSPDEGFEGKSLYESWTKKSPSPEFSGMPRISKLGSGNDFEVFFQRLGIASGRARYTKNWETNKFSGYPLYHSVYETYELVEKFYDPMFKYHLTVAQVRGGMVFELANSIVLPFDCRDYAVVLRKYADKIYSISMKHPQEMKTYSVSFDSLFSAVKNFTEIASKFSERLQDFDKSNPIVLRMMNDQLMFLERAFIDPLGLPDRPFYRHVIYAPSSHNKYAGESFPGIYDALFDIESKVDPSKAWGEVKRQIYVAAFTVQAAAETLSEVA

Row | SMILES | tissue uptake at 2 h [1, 3] [%ID/g] | tissue uptake at 2 h [1, 4] [%ID/g] | tissue uptake at 2 h [1, 5] [%ID/g] | tissue uptake at 2 h [1, 6] [%ID/g] | tissue uptake at 2 h [1, 7] [%ID/g] | tissue uptake at 2 h [1, 8] [%ID/g] | tissue uptake at 2 h [1, 9] [%ID/g] | tissue uptake at 2 h [1, 10] [%ID/g] | tissue uptake at 2 h [1, 11] [%ID/g] | tissue uptake at 2 h [1, 12] [%ID/g] | tissue uptake at 2 h [1, 13] [%ID/g] | tissue uptake at 2 h [1, 14] [%ID/g] | tissue uptake at 2 h [1, 15] [%ID/g] | tissue uptake at 2 h [1, 16] [%ID/g] | tissue uptake at 2 h [1, 17] [%ID/g] | tissue uptake at 2 h [1, 18] [%ID/g] | tissue uptake at 2 h [1, 19] [%ID/g] | tissue to tissue ratio at 2 h [1, 20] | tissue to tissue ratio at 2 h [1, 21] | tissue to tissue ratio at 2 h [1, 22] | other results
1 | C[Si](C)(CCC[N+](CCCS(=O)(=O)[O-])(CCCS(=O)(=O)O)CCCS(=O)(=O)O)O[Si]1(O[Si](C)(C)CCC[N+](CCCS(=O)(=O)[O-])(CCCS(=O)(=O)O)CCCS(=O)(=O)O)n2c3c4ccccc4c2N=C2N=C(N=c4c5c(OCCCOC(=O)NCCCCCC(=O)NCCCC[C@H](NC(=O)CN6CCN(CC(=O)O)CCN(CC(=O)O)CCN(CC(=O)O)CC6)C(=O)NCCCC[C@H](NC(=O)[C@H](CCC(=O)O)NC(=O)c6ccccc6)C(=O)NCc6ccc(C(=O)N[C@@H](Cc7ccc8ccccc8c7)C(=O)NCCCC[C@H](NC(=O)N[C@@H](CCC(=O)O)C(=O)O)C(=O)O)cc6)cccc5c(n41)=NC1=NC(=N3)c3ccccc31)c1ccccc12 [PSMA-N01] | 1.1 ± 0.2 | 21 ± 3 | 1.8 ± 0.1 | 1.1 ± 0.1 | 0.3 ± 0.2 | 0.7 ± 0.1 | 0.7 ± 0.1 | 0.6 ± 0.1 | 90 ± 7 | 1.5 ± 0.2 | 2.7 ± 0.9 | 0.2 ± 0.03 | 0.4 ± 0.1 | 0.6 ± 0.1 | 0.8 ± 0.1 | 2.2 ± 0.4 | 0.7 ± 0.1 | 20 ± 2.5 | 0.2 ± 0.04 | 14.6 ± 2.4 | tissue to tissue ratio at 2 h [1, 23]: 9.9 ± 1.4; Biodistribution Kidney ([2]; 10 MBq/mouse, i.v., n=4): 99.2 ± 11.5 %ID/g; Tumor/Negative tumor ratio [2]: 19.7 ± 6.5; Tumor/Prostate ratio [2]: 35.6 ± 4.6; Tumor/Salivary gland ratio [2]: 27.8 ± 4.8; IC50 (PSMA): 44.8 nM and < 50 nM; internalization percentage (percentage of cell-associated ligand that was internalized) (LS174T-PSMA cells): 73–90%
2 | C[Si](C)(CCC[N+](CCCS(=O)(=O)[O-])(CCCS(=O)(=O)O)CCCS(=O)(=O)O)O[Si]1(O[Si](C)(C)CCC[N+](CCCS(=O)(=O)[O-])(CCCS(=O)(=O)O)CCCS(=O)(=O)O)n2c3c4ccccc4c2N=C2N=C(N=c4c5c(OCCCOC(=O)NCCCCCC(=O)NCCCC[C@H](NC(=O)CCC(C(=O)O)N6CCN(CC(=O)O)CCN(CC(=O)O)CCN(CC(=O)O)CC6)C(=O)N[C@@H](Cc6ccccc6)C(=O)N[C@@H](CCC(=O)O)C(=O)N[C@@H](CCC(=O)O)C(=O)NCCCCCC(=O)NCCCC[C@H](NC(=O)N[C@@H](CCC(=O)O)C(=O)O)C(=O)O)cccc5c(n41)=NC1=NC(=N3)c3ccccc31)c1ccccc12 (stereo partly drawn) [PSMA-N064] | 0.7 ± 0.3 | 14 ± 2 | 1.6 ± 0.4 | 0.3 ± 0.1 | 0.2 ± 0.1 | 0.7 ± 0.1 | 0.3 ± 0.1 | 0.4 ± 0.1 | 74 ± 17 | 0.9 ± 0.2 | 0.5 ± 0.1 | 0.1 ± 0.04 | 0.3 ± 0.05 | 0.6 ± 0.1 | 0.4 ± 0.04 | 1.4 ± 0.3 | 0.4 ± 0.1 | 54 ± 14.7 | 0.2 ± 0.03 | 15.6 ± 3.6 | tissue to tissue ratio at 2 h [1, 23]: 9.6 ± 0.4; Tumor/Negative tumor ratio [2]: 23.8 ± 9.7; Tumor/Prostate ratio [2]: 21.9 ± 1.7; Tumor/Salivary gland ratio [2]: 33.8 ± 6.6
